Experimental data taken from patent US20150086574A1 (CELLERANT THERAPEUTICS, published 2015).
Residue numbers refer to the chain shown, from its start.

B1: 1.7E10 (antibody, V domains shown)
VH: EVKLLESGGGLVQPGGSLKLSCAASGFDFSRYWMSWVRQAPGKGLEWIGEINPDSSTINYTPSLKDKFIISRDNAKNTLFLQMSKVRSEDTALYYCARPSYDGYYGYAMDYWGQGTSVTVSS
VL: DIVLTQSPASLAVSLGQRATISCRASESVDSYGKSFMHWYQQKPGQPPKLLIYRASNLESGIPARFSGSGSRTDFTLTINPVEADDVATYYCQQSNEDPYTFGGGTKLEIKR
B2: 7.10F6 (antibody, IgG1, V domains shown)
VH: EVQLVESGGGLVQPGGSLKLSCAASGFIFSGYGMSWVRQTPDKRLELVAIINSNGGSVDYPDSVKGRVTISRDNAKNTLYLQMSSLKSEDTAMYYCARIYYRCMDYWGQGTSVTVSS
VL: NIMMTQSPSSLAVSAGEKVTMSCKSSQSLLYSSNQKNYLAWYQQKPGQSPKLLIYWASARESGVPDRFTGGGSGTDFTLTISSVQAEDLAVYYCHQYLSSYTFGGGTKLEIKR
notes: also called 7.10F6.1; 7.10F6.1-pure
B3: 9.1G12 (antibody, V domains shown)
VH: EVMLVESGGGLVKPGGSLKLSCAASGFTFSSYAMSWVRQTPERKLEWVATISSGGTYTYYPDSVKGRFTISRDNAKNRLYLQMSGLRSEGTAMYYCVRPDYTHDDGGFAYWGQGTLVTVSA
VL: QAVVTQESALTTSPGETVTLTCRSSTGAVTTSNYANWVQEKPDHLFTGLIGGTNNRAPGVPARFSGSLIGDKAALTITGAQTEDEAIYFCALWYSNHWVFGGGTKLTVL
notes: also called 9.1G12.8
B4: 27.2H4 (antibody, IgG1, V domains shown)
VH: EVQLQQSGAELVRPGALVKLSCKASGFNIKHYYIHWVNQRPEQGLEWIGWIDPETGNTIYDPKFQGKASITADTSSSTAYLQLNSLTSEDTAVYCCARGWSYAMDYWGQGTSVIVSS
VL: DIVMTQSHKFMSTSVGDRVSITCKASQDVNTAVAWYQQKPGHSPKLLIYSASYHYTGVPDRFTGSGSGTDFTFTISSVQAEDLAVYYCQQHYSTPWTFGGGTKLEIK
notes: also called 27.2H4 (D2.1)
B5: 1.7E10.12-Biotin (antibody, V domains shown)
VH: B1 VH
VL: B1 VL
notes: 1.7E10 (mouse IgG1,k) biotinylated with the EZ-link Sulfo NHS-LC-Biotinylated kit
B6: 6.14B9-Biotin (antibody, V domains shown)
VH: DVQLQESGPGLVKPSQSLSLTCTVTGYSITSDYAWNWIRQFPGNKLEWMGYISYSGSISYNPSLKSRISITRDTSKNQFFLQLNSVTTEDTATYYCARSGRLRRDFDYWGQGTTLT
VL: DIQMTQSPSSLSASLGERVSLTCRASQEISGYLSWLQQKPDGTIKRLIYAASTLDSGVPKRFSGSRSGSDYSLTISSLESEDFADYYCLQYASYPLTFGAGTKLELK
notes: 6.14B9 (mouse IgG1,k) biotinylated
B7: 1.7E10.12-BZAP (antibody, V domains shown)
VH: B1 VH
VL: B1 VL
notes: Biotinylated 1.7E10 (mouse IgG1,k) conjugated to streptavidin-saporin (SAv-ZAP)
B8: 6.14B9-BZAP (antibody, V domains shown)
VH: B6 VH
VL: B6 VL
notes: Biotinylated 6.14B9 (mouse IgG1,k) conjugated to streptavidin-saporin (SAv-ZAP)
B9: 27.12E12-Biotin (antibody, V domains shown)
VH: EVQLQQSGAELVRPGALVKLSCKASGFNIKDYYMYWMKQRPEQGLEWIGWIDPENVKTIYDPKFQGRATLTADTSSNTAYLQLSSLTSEDTAVYYCTRDFGYVGFFDVWGAGTTVTVSS
VL: DIVMTQSQKFMSTSVGDRVSVNCKASQNVGTNVVWYQQKPGQSPKALIYSASYRYSGVPDRFTGSGSGTDFTLTISTVQSEDLAEYFCQQYNSYPLTFGGGTKLEIKR
notes: 27.12E12 (mouse IgG2b,k) biotinylated
B10: 9.1G12.8-Biotin (antibody, V domains shown)
VH: B3 VH
VL: B3 VL
notes: 9.1G12 (mouse IgG2b,l) biotinylated
B11: 27.12E12-BZAP (antibody, V domains shown)
VH: B9 VH
VL: B9 VL
notes: Biotinylated 27.12E12 (mouse IgG2b,k) conjugated to streptavidin-saporin (SAv-ZAP)
B12: 9.1G12.8-BZAP (antibody, V domains shown)
VH: B3 VH
VL: B3 VL
notes: Biotinylated 9.1G12 (mouse IgG2b,l) conjugated to streptavidin-saporin (SAv-ZAP); also called 9.1G12-BZAP
B13: 33.1G12 (antibody, IgG1, V domains shown)
VH: EVQLQQSGPELVKPGASVKISCKASGYSFTGYLMNWVMQSHGKSLEWIGRINPYNGDIFYNQKFKDKATLTVDKSSSTAHMELRSLASEDSAVYYCARRDENFDYDNAMDYWGQGTSVTL
VL: DIVLTQSPASLAVSLGQRATISCRASESVDIYGNSFMHWYQQKPGQPPKLLIYRASNLESGIPARFRGSGSRTDFTLTIYPVEADDVATYYCQQSNEDPWTFGGGTKLEIK
notes: the printed VH ends early (…GQGTSVT)
B14: 27.12A6 (antibody, V domains shown)
VH: EVKLVESGGGLVQPGGSLNLSCAASGFTFSSYTMSWVRQTPEKRLEWVAYISSGGHSTYFPDTVKGRFTISRDNAKNTLYLQMSSLKSEDTAVYYCARGGYGNYGPYYNMDYWGQGTSVTVSS
VL: NIMMTQSPSSLAVSAGEKVTMSCKSSQSVLYSSNQKNYLAWYQQKPGQSPKLLIYWASTRESGVPDRFTGSGSGTDFTLTINNVQAEDLAVYYCHQYLSSWTFGGGTKLEIK
notes: also called 27.12A6 (D2.2)
B15: 6.16F9 (antibody, V domains shown)
VH: EVNLVESGGGLVQPGGSLKLSCAASGFTFSSYTMSWVRQSPEKRLEWVAYTSSSGASTYYPDTVKGRFTISRDNAKNTLHLQMSSLKSEDTAMYYCARGGYGNYGPYYALDYWGQGTSVTVSS
VL: B14 VL with G74E, N82S, N83S, A86T
notes: also called 6.16F9 (D2.4)

What follows are molecules tested against T1, T cell Immunoglobulin- and Mucin domain-containing molecule 3 (TIM3), human, on cells (human, UniProt Q8TDQ0 22-301) (assay: cell-based or functional assay).
T1 sequence: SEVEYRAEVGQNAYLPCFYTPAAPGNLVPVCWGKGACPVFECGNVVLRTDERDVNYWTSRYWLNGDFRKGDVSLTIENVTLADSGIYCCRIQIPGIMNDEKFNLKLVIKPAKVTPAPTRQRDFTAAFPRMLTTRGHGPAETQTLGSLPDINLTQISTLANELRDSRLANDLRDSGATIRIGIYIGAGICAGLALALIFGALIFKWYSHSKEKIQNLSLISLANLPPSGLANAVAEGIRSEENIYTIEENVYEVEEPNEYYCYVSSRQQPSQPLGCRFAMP
B1 was tested, and the “IFN-gamma release from activated CD4+ T cells (ELISA), antibody at 5 ug/ml” value was over 2 fold reduction.
With B2 the “IFN-gamma release from activated CD4+ T cells (ELISA), antibody at 5 ug/ml” value was over 2 fold reduction.
B3 was tested, and the “IL-6 release from activated CD4+ T cells (ELISA), antibody at 5 ug/ml” value was over 2 fold reduction.

These molecules were tested against T1, T cell Immunoglobulin- and Mucin … (assay: cell binding (flow cytometry), Pfeiffer cells).
B2 was tested, and the “percentage of cell binding” value was 92%.
For B3, the “percentage of cell binding” value was 14%.
B4 was tested, and the “percentage of cell binding” value was 75%.

Each molecule was assayed against T1, T cell Immunoglobulin- and Mucin … (assay: flow cytometry; cells not named in the table (Example 5 uses Pfeiffer cells)).
With B2 the “% Positive for TIM3” value was 93.3% and the “GeoMean (Intensity of TIM3 binding)” value was 142.
For B5, the “% Positive for TIM3” value was 99.2% and the “GeoMean (Intensity of TIM3 binding)” value was 354.
With B6 the “% Positive for TIM3” value was 48.2% and the “GeoMean (Intensity of TIM3 binding)” value was 20.4.
For B7, the “% Positive for TIM3” value was 99.3% and the “GeoMean (Intensity of TIM3 binding)” value was 436.
For B8, the “% Positive for TIM3” value was 43.9% and the “GeoMean (Intensity of TIM3 binding)” value was 22.5.
B9 was tested, and the “% Positive for TIM3” value was 96.8% and the “GeoMean (Intensity of TIM3 binding)” value was 202.
For B10, the “% Positive for TIM3” value was 55.4% and the “GeoMean (Intensity of TIM3 binding)” value was 23.1.
B11 was tested, and the “% Positive for TIM3” value was 98.8% and the “GeoMean (Intensity of TIM3 binding)” value was 268.
With B12 the “% Positive for TIM3” value was 97.4% and the “GeoMean (Intensity of TIM3 binding)” value was 168.

What follows are molecules tested against T1, T cell Immunoglobulin- and Mucin … (assay: flow cytometry, PBMCs of AML patient 3, CD34+CD38- population).
In the case of B2, the percent binding is reported as 0.6%.
For B3, the percent binding was 0.23%.
Molecule B4 has a percent binding of 0.69%.

What follows are molecules tested against T cell Immunoglobulin- and Mucin domain-containing molecule 3 (TIM3), human, on cells (human) (UniProt Q8TDQ0) (assay: flow cytometry; cells not named in the table (Example 5 uses Pfeiffer cells)).
Mouse IgG1k-Biotin (antibody) gave a % Positive for TIM3 of 0.192% and a GeoMean (Intensity of TIM3 binding) of 5.06.
Mouse IgG2ak-Biotin (antibody) showed a % Positive for TIM3 of 0.49% and a GeoMean (Intensity of TIM3 binding) of 5.83.
Molecule IgG2bk-BZAP (antibody) has a % Positive for TIM3 of 0.195% and a GeoMean (Intensity of TIM3 binding) of 6.48.
Mouse IgG1k-BZAP (antibody) gave a % Positive for TIM3 of 0.501% and a GeoMean (Intensity of TIM3 binding) of 5.33.

The molecules below were run against T1, T cell Immunoglobulin- and Mucin … (assay: flow cytometry, PBMCs of AML patient 3, Blast population).
Work on B2 yielded a percent binding of 1.33%.
B3 was tested, and the percent binding was 0.67%.
B4 was tested, and the percent binding was 1.07%.

These molecules were tested against T1, T cell Immunoglobulin- and Mucin … (assay: flow cytometry, TIM3 expressing cell lines).
B13: binds.
B14: binds.
B15: binds.
